Columns and labels:
Test in all cases: enzyme inhibition assay (chromogenic substrate, fit to Morrison's tight binding equation); MMP-2ACT (0.6 nM), MMP-9CAT (3 nM) or MMP-14CAT (1 nM) incubated with 0-25 nM N-TIMP2 variant for 1 h at 37 C in 50 mM HEPES, 10 mM CaCl2, 0.05% Brij-35, 1 mM DTNB, pH 7.5; then 100 uM chromogenic substrate, absorbance at 412 nm; three independent experiments
Conditions in all cases: both partners purified
[1] = molecular target: T1, human MMP-9 catalytic domain (MMP-9CAT) (human, UniProt P14780 107-215; P14780 391-443)
T1 construct: Matrix metalloproteinase 9 (MMP-9), human, catalytic domain, residues 107-215 (first stretch; residues 216-390 left out); Matrix metalloproteinase 9 (MMP-9), human, catalytic domain, residues 391-443 (second stretch)
T1 chain (looked up): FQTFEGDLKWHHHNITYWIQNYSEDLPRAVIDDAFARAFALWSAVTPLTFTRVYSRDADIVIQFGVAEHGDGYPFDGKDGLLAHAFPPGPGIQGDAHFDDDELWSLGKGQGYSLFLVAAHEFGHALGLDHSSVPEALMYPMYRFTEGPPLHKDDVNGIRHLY

[2] = molecular target: T2, human MMP-14 catalytic domain (MMP-14CAT) (human, UniProt P50281 112-292)
T2 construct: Matrix metalloproteinase 14 (MMP-14), human, catalytic domain, residues 112-292

[3] = molecular target: T3, activated MMP-2 (MMP-2ACT) (human, UniProt P08253 110-660)
T3 sequence (looked up): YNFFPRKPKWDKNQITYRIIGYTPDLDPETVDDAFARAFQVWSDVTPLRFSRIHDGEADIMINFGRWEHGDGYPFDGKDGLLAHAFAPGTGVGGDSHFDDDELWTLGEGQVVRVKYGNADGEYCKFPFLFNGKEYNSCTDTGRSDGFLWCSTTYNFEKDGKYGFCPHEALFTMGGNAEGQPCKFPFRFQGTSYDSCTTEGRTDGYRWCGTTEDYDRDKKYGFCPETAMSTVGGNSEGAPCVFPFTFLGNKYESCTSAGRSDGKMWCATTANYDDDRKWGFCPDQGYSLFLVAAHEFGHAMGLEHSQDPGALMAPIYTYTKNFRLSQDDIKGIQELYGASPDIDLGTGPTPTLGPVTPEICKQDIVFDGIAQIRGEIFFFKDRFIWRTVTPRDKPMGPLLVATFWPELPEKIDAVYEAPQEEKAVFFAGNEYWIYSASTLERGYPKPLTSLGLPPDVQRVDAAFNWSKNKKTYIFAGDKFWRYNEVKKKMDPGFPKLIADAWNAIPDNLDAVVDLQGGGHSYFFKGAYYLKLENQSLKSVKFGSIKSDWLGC

B1: N-TIMP2 (N-terminal domain of TIMP2) (domain or fragment, human, UniProt P16035 27-153, looked up)
chain: CSCSPVHPQQAFCNADVVIRAKAVSEKEVDSGNDIYGNPIKRIQYEIKQIKMFKGPEKDIEFIYTAPSSAVCGVSLDVGGKKEYLIAGKAEGDGKMHITLCDFIVPWDTLSTTQKKSLNHRYQMGCE
notes: numbers count on: the mature protein (Cys1 is the N-terminus); Cloned in the vector pMECS; also called wild-type N-TIMP2; parental N-TIMP2; source: E. coli WK6, periplasmic extract, purified (Ni-NTA)
Ki [1]: 0.322 nM | Ki [2]: 0.711 nM | Ki [3]: 0.233 nM

— article PMC9882641, “Utilizing genetic code expansion to modify N-TIMP2 specificity towards MMP-2, MMP-9, and MMP-14” (Research Square, 2023)
